Data as given in patent publication US20130195884A1, “NOVEL MODULATORS OF TRAIL SIGNALLING” (Deutsches Krebsforschungszentrum, priority 2009, published 2013).

Assays:
[1] = test system: freshly isolated human hepatocytes; conditions: cited from earlier work
[2] = cited from earlier work
[3] = test system: low-grade Non-Hodgkin Lymphoma (NHL); conditions: combination with rituximab, phase Ib, cited from earlier work
HeLa cells = assay: Titration of TRAIL-induced apoptosis, cell viability by ATP quantification (CellTiterGlo); assay type: cell-based, human
Procedure: FIG. 2: Titration curve for TRAIL-induced apoptosis. HeLa cells were stimulated with 0.001 to 1000 ng/ml TRAIL, followed by analysis of cell viability by the quantification of ATP (CelliterGlo® assay).
FIG. 5. TRAIL-induced cell death in HeLa cells can be rescued by siRNAs. (A) TRAIL induces apoptosis in HeLa cells. Membrane blebbing was observed after 1-2 hours and a complete loss of viable cells was detected after 24 hours. (B) The killing activity of TRAIL in HeLa cells is concentration dependent. (C) Silencing the TRAIL-R1 receptor and caspase-8 with siRNAs, rescued the apoptotic effect to 70% and 100% viability of untreated cells, respectively.
Cell viability was quantified by the measurement of ATP (CeIlTiterGlo® Luminescent Cell Viability Assay) or the quantification of mitochondrial activity (MTT assay). CellTiterGlo® Luminescent Cell Viability Assay was performed according to manufacturer's instructions. Briefly, 24 h after TRAIL treatment, CellTiterGlo® reagent was added to the medium. After mixing and shaking for 2 min, the luminescent signal was measured using Mithras LB 940 (Berthold Technologies, Bad Wildbad, Germany).
To determine the exact sensitivity to TRAIL-induced apoptosis, a dose-response curve ranging from 0.01 to 1000 ng/ml TRAIL was performed. Cell viability was quantified 24 h later by the CellTiterGlo® assay as this method is very sensitive, reproducible and applicable for high-throughput approaches. […] Maximum cell death is reached at TRAIL concentrations around 100 ng/ml (cf. FIG. 2).
The death-inducing ligand TRAIL triggers apoptosis in HeLa cells shortly after application (FIG. 5 A). During this process, the cytoplasm shrinks, the DNA condensates and the cell membrane starts blebbing, releasing fragments of the cell in a controlled manner (reviewed in Yasuhara 2007). […] This process was also monitored with a cell-based viability assay, quantifying cellular ATP-levels. TRAIL induced cell death in HeLa cells in a dose-dependant manner (FIG. 5 B).

Q: With “HIS-TRAIL: soluble TRAIL with an N-terminal polyhistidine tag” as the molecule, how does the “Toxicity on freshly isolated human hepatocytes” value [1] read?
A: considerable toxicity

Q: What does the source list for “rhApo2L/TRAIL: untagged version of recombinant soluble TRAIL, co-developed by Genentech and Amgen”?
A: Toxicity in patients receiving the single agent [2]: no dose-limiting toxicity (DLT) or severe adverse effects (SAEs); Serious adverse events of the combination [3]: two SAEs possibly related to the combination; Tumor response assessment ([3]; eight patients with low-grade NHL): two showed complete response, one a partial response and five stable disease

B1: TRAIL: death-inducing ligand, recombinant TRAIL used to trigger apoptosis in HeLa cells (protein, UniProt P50591 1-281, looked up)
Tumor necrosis factor ligand …: MAMMEVQGGPSLGQTCVLIVIFTVLLQSLCVAVTYVYFTNELKQMQDKYSKSGIACFLKEDDSYWDPNDEESMNSPCWQVKWQLRQLVRKMILRTSEETISTVQEKQQNISPLVRERGPQRVAAHITGTRGRSNTLSSPNSKNEKALGRKINSWESSRSGHSFLSNLHLRNGELVIHEKGFYYIYSQTYFRFQEEIKENTKNDKQMVQYIYKYTSYPDPILLMKSARNSCWSKDAEYGLYSIYQGGIFELKENDRIFVSVTNEHLIDMDHEASFFGAFLVG
Q: For B1, which “Membrane blebbing observed after” value (HeLa cells; HeLa cells after addition of TRAIL) is on record?
A: 1 to 2 h

Q: And the “Viable cells left after TRAIL treatment” value (HeLa cells; HeLa cells, 100 ng/ml recombinant TRAIL, 24 hours)?
A: no viable cells were left

Q: And the “TRAIL concentration at which maximum cell death is reached” value (HeLa cells; HeLa cells, dose-response 0.01 to 1000 ng/ml TRAIL, viability after 24 h, CellTiterGlo)?
A: around 100 ng/ml
